{"source": "patent US6710030B1", "about": "“Contortrostain (CN) and methods for its use in preventing metastasis and other conditions” (University of Southern California, priority 1993, dated 2004)", "key": {"T24-β3 neg. cells": {"system": "T24-β3 neg. cells", "assay": "Adhesion of T24-β3 neg. cells to immobilized vitronectin", "type": "cell-based, human", "conditions": "FIG. 19 C, D", "method": "Experiment 1. Cell adhesion assay: Human bladder carcinoma T24 cells were purchased from ATCC, and grown in RPMI1640 medium containing 5% fetal bovine serum. T24-β3 neg. cells were isolated by 6 rounds of negative FACS selection with anti-αvβ3 monoclonal antibody (mAb) LM609. FACS analysis was then performed as follows. The cells were resuspended in 1% BSA/PBS at a density of 1×10^7/ml. Aliquots of 100 μl were incubated with anti-αvβ3 mAb 7E3 or anti-αvβ5 mAb P1F6 (final concentration 5 μg/ml) at room temperature for 30 minutes. The cells were washed twice and resuspended in 1% BSA/PBS. Goat anti-mouse IgG conjugated with FITC was added to the suspension at a final titer of 1:200. After 30 minutes incubation at room temperature in darkness, unbound FITC-conjugated IgG was washed off, and the fluorescent intensity of the cells was analyzed using flow cytometry (FACScan, Becton Dickinson, Bedford, Mass.). Tests were performed in duplicate and the experiment was repeated three times. The results clearly indicate that T24 cells express both integrins αvβ3 (major) and αvβ5 (minor), but T24-β3 neg. cells only express αvβ5 (FIG. 18)\nIndividual wells of 96-well plates were coated at 4° C. overnight with 100 μl of vitronectin (1 μg/well). […] Cell adhesion was quantified either by CellTiter 96™ Aqueous Proliferation Assay kit (Promega, Madison, Wis.). […]"}, "[1]": {"system": "adhesion formation during wound healing", "assay": "Rabbit model of adhesion formation (uterine horns)", "type": "in vivo", "conditions": "Alzet pumps, 10 μl/hr (36 μg/ml)", "method": "In preliminary studies in a rabbit model of adhesion formation, abrasion and devascularization of the uterine horns of rabbits were employed to induce adhesion formation during wound healing in untreated animals [Rodgers, K. et al., Int. J. Fertil. 35:40 (1990)]. Alzet pumps were employed to continuously deliver CN at a rate of 10 μl/hr (36 μg/ml). […] Therefore, compositions and methods for preventing adhesion formation whereby an amount of CN effective to prevent adhesion formation is administered to a patient in need of such treatment are also contemplated as within the scope of the present invention."}, "αvβ5 293 cells": {"system": "αvβ5 293 cells", "assay": "Phosphotyrosine immunoblot, 293 cells expressing αvβ5", "type": "cell-based, human", "conditions": "10 min", "method": "Cell culture, preparation and stimulation—T24 cells were maintained in RPMI 1640 medium containing 5% fetal bovine serum, and MDA-MB-435 and 293 cells were maintained in Dulbecco's modified Eagle's medium with 10% serum at 37° C. in 5% CO2. Cells were washed with phosphate-buffered saline (PBS) and starved in the appropriate serum-free medium for 6 h at 37° C. Cells were detached by brief treatment with 0.05% trypsin/0.02% EDTA in PBS and collected by centrifugation, resuspended in soybean trypsin inhibitor (1 mg/ml in serum-free medium), and washed in 2% bovine serum albumin/serum-free medium. Cells were maintained in suspension for 1 h in 2% bovine serum albumin/serum-free medium at 37° C. with end-over-end agitation. Quiescent cells (3×10^6/ml) were treated with disintegrins or other reagents while in suspension, or were allowed to adhere to Matrigel (Becton Dickinson, Bedford, Mass.) diluted 1:100 with serum-free medium during treatment. […]\nContortrostatin- induced signaling events are mediated by the αvβ3 integrin—The integrinbinding specificities of echistatin and flavoridin have been determined previously (Niewiarowski et al., supra; and Pfaff, M., McLane, M. A., Beviglia, L., Niewiarowski, S., and Timpl, R. (1994) Cell Adhesion and Communication 2, 491-501). […]"}, "[2]": {"system": "human melanoma M24 met cells", "assay": "CN binding to human melanoma M24 met cells", "from_the_text": "The compositions of the present invention also have utility in inhibiting metastasis in melanoma, carcinoma and sarcoma patients. […] Thus, methods and compositions for preventing metastases in melanoma, carcinoma and sarcoma patients are also contemplated as within the scope of the present invention."}, "[3]": {"system": "unactivated human platelets", "assay": "Scatchard analysis of CN binding to unactivated human platelets"}}, "note": "Entries after “also recorded” stand apart in the source; their conditions may differ. Where two headings read alike, the source gives them in different places.", "data": [{"molecule": "contortrostatin (protein) DAPANPCCDAATCKLTTGSQCADGLCCDQCKFMKEGTVCRRARGDDLDDYCNGISAGCPRNPFHA", "values": [{"measurement": "adhesion of T24-β3 neg. cells to vitronectin, in words", "setting": "T24-β3 neg. cells", "result": "completely inhibited adhesion; also recorded: inhibits adhesion of T24-β3 neg. completely"}, {"measurement": "adhesion formation", "setting": "[1]", "result": "decreased adhesion formation"}, {"measurement": "tyrosine phosphorylation", "setting": "αvβ5 293 cells", "result": "no response"}, {"measurement": "number of sites, high affinity site", "setting": "[2]", "result": "96,000 (±39,000) sites per cell"}, {"measurement": "number of sites, lower affinity site", "setting": "[2]", "result": "480,000 (±90,000) sites per cell"}, {"measurement": "Kd", "setting": "[2]; read-out: Kd, lower affinity site", "result": 41, "unit": "nM"}, {"measurement": "Kd", "setting": "[2]; read-out: dissociation constant (Kd), high affinity site", "result": 1.1, "unit": "nM"}, {"measurement": "number of binding sites (Bm)", "setting": "[3]", "result": "100,000"}]}]}
